{"source": "IntAct's records for PubMed 28864920", "parents": {"B1": {"name": "DNA repair protein RAD51 homolog 3 (Homo sapiens), O43502 (parent)", "chain": "MRGKTFRFEMQRDLVSFPLSPAVRVKLVSAGFQTAEELLEVKPSELSKEVGISKAEALETLQIIRRECLTNKPRYAGTSESHKKCTALELLEQEHTQGFIITFCSALDDILGGGVPLMKTTEICGAPGVGKTQLCMQLAVDVQIPECFGGVAGEAVFIDTEGSFMVDRVVDLATACIQHLQLIAEKHKGEEHRKALEDFTLDNILSHIYYFRCRDYTELLAQVYLLPDFLSEHSKVRLVIVDGIAFPFRHDLDDLSLRTRLLNGLAQQMISLANNHRLAVILTNQMTTKIDRNQALLVPALGESWGHAATIRLIFHWDRKQRLATLYKSPSQKECTVLFQIKPQGFRDTVVTSACSLQTEGSLSTRKRSRDPEEEL", "partner": "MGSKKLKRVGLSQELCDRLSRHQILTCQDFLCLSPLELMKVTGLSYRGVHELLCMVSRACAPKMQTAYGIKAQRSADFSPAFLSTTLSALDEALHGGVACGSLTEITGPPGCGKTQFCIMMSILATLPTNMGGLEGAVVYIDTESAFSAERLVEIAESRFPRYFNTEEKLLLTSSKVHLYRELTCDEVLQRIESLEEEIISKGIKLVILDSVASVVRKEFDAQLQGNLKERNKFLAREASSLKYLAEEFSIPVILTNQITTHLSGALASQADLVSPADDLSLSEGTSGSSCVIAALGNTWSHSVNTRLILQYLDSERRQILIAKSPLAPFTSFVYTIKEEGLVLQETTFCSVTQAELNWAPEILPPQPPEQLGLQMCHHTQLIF"}, "B2": {"name": "DNA repair protein XRCC3 (Homo sapiens), O43542 (parent)", "chain": "MDLDLLDLNPRIIAAIKKAKLKSVKEVLHFSGPDLKRLTNLSSPEVWHLLRTASLHLRGSSILTALQLHQQKERFPTQHQRLSLGCPVLDALLRGGLPLDGITELAGRSSAGKTQLALQLCLAVQFPRQHGGLEAGAVYICTEDAFPHKRLQQLMAQQPRLRTDVPGELLQKLRFGSQIFIEHVADVDTLLECVNKKVPVLLSRGMARLVVIDSVAAPFRCEFDSQASAPRARHLQSLGATLRELSSAFQSPVLCINQVTEAMEEQGAAHGPLGFWDERVSPALGITWANQLLVRLLADRLREEEAALGCPARTLRVLSAPHLPPSSCSYTISAEGVRGTPGTQSH", "partner": "B1 chain"}, "B3": {"name": "DNA repair protein XRCC3 (Homo sapiens), O43542 (parent)", "chain": "B2 chain"}, "B4": {"name": "DNA repair protein RAD51 homolog 3 (Homo sapiens), O43502 (parent)", "chain": "B1 chain", "partner": "B2 chain"}, "B5": {"name": "DNA repair protein RAD51 homolog 1 (Homo sapiens), Q06609 (parent)", "chain": "MAMQMQLEANADTSVEEESFGPQPISRLEQCGINANDVKKLEEAGFHTVEAVAYAPKKELINIKGISEAKADKILAEAAKLVPMGFTTATEFHQRRSEIIQITTGSKELDKLLQGGIETGSITEMFGEFRTGKTQICHTLAVTCQLPIDRGGGEGKAMYIDTEGTFRPERLLAVAERYGLSGSDVLDNVAYARAFNTDHQTQLLYQASAMMVESRYALLIVDSATALYRTDYSGRGELSARQMHLARFLRMLLRLADEFGVAVVITNQVVAQVDGAAMFAADPKKPIGGNIIAHASTTRLYLRKGRGETRICKIYDSPCLPEAEAMFAINADGVGDAKD", "partner": "B2 chain"}}}
{"variants_of": "B1", "details": "with ra51b_human RAD51B"}
{"variant": "C135R", "effect of a mutation on the interaction": "disrupting interaction strength"}
{"variants_of": "B2", "details": "with ra51c_human RAD51C"}
{"variant": "V337E", "effect of a mutation on the interaction": "disrupting interaction strength"}
{"variant": "L297P", "effect of a mutation on the interaction": "disrupting interaction strength"}
{"variants_of": "B3", "details": "with rad51_human RAD51, Q06609"}
{"variant": "L297P", "effect of a mutation on the interaction": "disrupting interaction strength"}
{"variant": "V337E", "effect of a mutation on the interaction": "disrupting interaction strength"}
{"variants_of": "B4", "details": "with xrcc3_human XRCC3, O43542"}
{"variant": "C135R", "effect of a mutation on the interaction": "disrupting interaction strength"}
{"variants_of": "B5", "details": "with xrcc3_human XRCC3, O43542"}
{"variant": "A55V", "effect of a mutation on the interaction": "with no effect"}
{"variant": "A79D", "effect of a mutation on the interaction": "decreasing interaction strength"}
